This note sets out measurements from patent publication US20150104459A1 (published 2015).

The chains are these.
B1: TCN-536 (5095_N01) (antibody, V domains shown)
VH: QVQLQQWGAGLLKPSETLSLTCAVYGGSFSVSGYYWSWIRQPPGRGLEWIGEISHGGSTNYNPSLKSRVTISVDTTKNQFSLRLSSVTAADTAVYYCARGTDPDTEVYCRVGNCAAFDYWGQGSLVTVSS
VL: EIILAQSPGTLSLSPGERATLSCRASQFVSTRSLAWYQQRPGQAPRLLIYGASSRATGIPDRFSGSGSGTDFTLTISRLEPEDFAVYYCQHYGYSPRYAFGQGSKVEIK
B2: TCN-535 (5246_P19) (antibody, V domains shown)
VH: QVQLVQSGSEVKKPGTSVKVSCTASGSVFTNYGISWVRQAPGQGLEWMGGIIPLFGAAKYAQKFQGRVTITADESTKTVYMELSRLTSKDTAIYFCAKAPRVYEYYFDQWGQGTPVTVSS
VL: EIVLTQSPGTLSLSPGERATLSCRASQSVSSSQLAWYQQKPGQAPRLIIYGASTRATGIPDRFSGSGSGTDFTLTIGRLEPEDFAVFFCQQYSTSPPTFGQGTKVDFK
B3: TCN-534 (5249_B02) (antibody, V domains shown)
VH: QVQLVQSGAEVKKPGSSVKVSCRESGGTFNGYTITWVRQAPGQGLEWMGGIIPMMGTVNYAQKLQGRVTITTDYFTKTAYMDLNNLRSEDTAMYYCVKIRYTGQQLLWGQGTLVTVSS
VL: DIQMTQSPSTLSASIGDRVTITCRASQSIASWLAWYQQKPGKAPKLLIYEAVNLESGVPSRFSGSGSGTDFTLTISSLQPDDFATYFCQHYGTISQTFGGGTKVEIK
B4: TCN-539 (5056_A08) (antibody, V domains shown)
VH: QVQLVESGGGVVQPGRSLRLSCAASEITFITYAMHWVRQAPGKGLEWVALISDDGSNKFYADSVKGRFTISRDNSKNTLYLQMNSLRAEDTAAYYCAREGVYFDSGTYRGYFDYWGQETLVTVSS
VL: EIVLTQSPATLSLSPGERATLSCRASQSVSSYLAWYQQKPGQAPRLLIYDASNRATGIPARFSGSGSGTDFTLTISSLEPEDFAVYYCQQRSHWPPITFGQGTRLEIK
B5: TCN-550 (5096_F06) (antibody, V domains shown)
VH: QVQLQESGPGLVKPSETLSLTCTVSGASINSHYWSWIRQPPGKGLEWIGYVYYSGSTTYNPSLKSRVTLSVDTSKNQFSLNLSSVTAADTAFYYCARHPYDVLTGSGDWFDPWGQGTLVTVSS
VL: SYVLTQAPSVSVAPGQTARITCGGNAIGSKKVHWYQHKAGQAPVLVVYDDTDRPSGIPERFSGSNSWSTATLTINRVEAGDEADYYCQVWDFTIDHVVFGGGTKLTVL
B6: TCN-554 (5277_M05) (antibody, V domains shown)
VH: QVQLVQSGADLKKPGASVKVSCKASGYTFTDYYIHWVRQAPGQGLEWMGWINPESGDTKYAQKFQGRVTMTRDTSITTAYMELGRLRSDDTAVYYCARDVSTTWSWFAPWGQGTLVTVSS
VL: DIVMTQSPDSLAVSLGERATINCRSSQSIFHNSNNENYLAWYQQKPGQPPKLLIYWASTRESGVPDRFSGSGSGTDFTLTISSLQAEDVAVYFCQQYYNAPLTFGGGTKVEIK
B7: TCN-544 (5082_A19) (antibody, V domains shown)
VH: QVQLQESGPGLVKPSETLSLTCTVSRGSIGHYFWSWIRQPPGKGLEWIGYISYSGSTKYNPSLRSRVTISVDTSKNQFSLNLNSVTATDTALYYCAREDYDILTGAGPGMEVWGQGTTVTVSS
VL: QSMLTQPPSASGTPGQRVTISCSGSSSNIGSNTVNWFKHLPGTAPKLLIYRNDLRPSGVPDRFSGSKSGTSASLAISGLQSEDEADYYCATWDDSLNGFYVFGTGTKVTVL
B8: TCN-553 (5261_C18) (antibody, V domains shown)
VH: QVQVVQSGTEVKKPGSSVKVSCQTSGGRFMSYAITWVRQAPGQGLEWMGGIVPVFGTANYAQKFQGRVTITTDDSTRTAYMELSSLRSEDTAVYYCGFRYGSGYGFDSWGQGTLVTVSS
VL: EIVLTQSPGTLSLSPGERATLSCRASQSVSSSYLAWYQKKPGQAPRLLIYGASTRATGIPDRFTGSGSGTDFTLSISRLEPEDFAVYYCQHFGTSVFTFGGGTKVEIK
B9: TCN-555 (5246_L16) (antibody, V domains shown)
VH: QVQLVQSGAEVKRPGSSVKVSCTASGGIFRKNAISWVRQAPGQGLEWMGGIIAVFNTANYAQKFQNRVKITADESGNTAYMELSSLTSDDTAVYYCASHPKYFYGSGSYPDFWGQGTLVTVSS
VL: QSALTQPRSVSGSPGQSITISCTGGSSDIGASNSVSWYQQHPGKAPKLVIFDVTERPSGVPHRFSGSKSGNTASLTVSGLQPDDEADYFCCAYGGKYLVVFGGGTKVTVL
B10: TCN-563 (5237_B21) (antibody, V domains shown)
VH: B9 VH with V5A, N66G, T87R
VL: B9 VL with I18V, G25S, I29V, F51Y, D83E
B11: TCN-551 (5243_D01) (antibody, V domains shown)
VH: EVQLVQSGSEVKKPGESLKISCKGSGYSFSNYWIGWVRHMPGKGLEWMGIIYPGDSDTRYSPSFQGQVTMSADKSSSTVYLQWSSLKASDTAIYYCARRGGHSFGYGSGGDTHSEFDSWGQGTLVTVSS
VL: QSVLTQSPSVSAAPGQKVTISCSGSDSNIGDYFVCWYQHLPGKPPQLLIYENNKRPSGIPDRFSGSKSGTSATLGITGIQTGDEADYYCATWDGSLSAWVFGGGTKLTVL
B12: TCN-560 (5084_P10) (antibody, V domains shown)
VH: EVQLVESGGGLVQPGGSLRLSCAASGFIFRNYWMSWVRQAPGKGLEWVANIKQDGREKYYVDSLRGRVNISRDNAENSLYLHMNSLRVEDTAVYFCARARMVVVTGDGFDVWGHGTMVTVSS
VL: DIQMTQSPSSLSASVGDRVTITCRASQNIKRYFNWYQQKPGKAPKLLIYAASNLENGVPSRFSGSGSGTDFTLTISSLQPEDFATYYCQQSFSKSWTFGQGTNVDIK
B13: TCN-523 (5248_A17) (antibody, V domains shown)
VH: QVQLVQSGAEVKKPGSSVKVSCKASGGSFSNYAFSWVRQAPGQGLEWMGGTIPLLGTTNYAQKFQGRVTISADQFTSTAYMELGSLRSEDTAVYYCTRRKMTTAFDSWGQGTLVTVSS
VL: QPVLTQPPSASASLGASVTLTCTLSSAYSNYKVDWYQQRPGKGPRFVMRVGTGGIVGSKGDGIPDRFSVLGSGLNRYLTIKNIQEEDESDYHCGADHGSGSNFVSPYVFGGGTKLTVL
B14: TCN-554 (5277_M05) (antibody, V domains shown)
VH: B6 VH
VL: B6 VL
B15: TCN-552 (5249_I23) (antibody, V domains shown)
VH: QVQVVQSGAEVKKPGSSVRVSCQASGGTFMNYAIIWVRRAPGQGLEWMGGIIPVFPTPNYAQMFQGRVTISTDESRSTSFLELTNLRYEDTAVYYCARRIYHGGNSGFDFWGQGTLVTVSS
VL: EIVLTQSPATLSLSPGERATLSCRASQSVGNYLAWYQQKPGQAPRLLIYDSSNRAPGIPARFSGSGSGTDFTLTISSLAPEDFAVYYCQQRSKWPPMYSFGHGTKLEIK

Substitutions are numbered along the chain they refer to.

In the first assay the target is hemagglutinin (HA) of live influenza A/Solomon Islands/3/06 (H1N1) virus (influenza A virus A/Solomon …). In words: cell-based or functional assay.
In the case of B1, the “% Neutralization” value stood at 81.6%.

As to B2, the “% Neutralization” value stood at 88.6%.

With B3, the “% Neutralization” value was determined as 65.7%.

In the next assay the target is hemagglutinin (HA) of live influenza A/Wisconsin/67/05 (H3N2) virus (influenza A virus A/Wisconsin/67/2005 …). The assay can be described thus: cell-based or functional assay.
Turning to B1, the “% Neutralization” value came to 99.9%.

In the case of B2, the “% Neutralization” value is 0%.

Regarding B4, the “% Neutralization” value is 99%.

Regarding B5, the “% Neutralization” value was found to be 100%.

Take B3: the “% Neutralization” value came to 0%.

B6: the “% Neutralization” value was 100%.

As to B7, the “% Neutralization” value is 97%.

Another assay addresses Hemagglutinin of influenza A/Solomon Islands/3/06 (H1N1) on whole virions (Influenza A virus A/Solomon …). The assay can be described thus: cell-based or functional assay.
As for B8, the “% Neutralization” value came out at 87%.

In the case of B9, the “% Neutralization” value worked out at 48%.

Regarding B10, the “% Neutralization” value came out at 78%.

B11: the “% Neutralization” value was 100%.

As for B12, the “% Neutralization” value was found to be 94%.

In the case of B13, the “% Neutralization” value worked out at 69%.

Regarding B14, the “% Neutralization” value was determined as 42%.

Regarding B15, the “% Neutralization” value turned out to be 57%.
